We go through one molecule from US20230250158A1.

Assay [1] addresses SARS-CoV-2 Spike S2-hFc (SARS-CoV-2), P0DTC2. Put plainly: Octet, Fab as analyte over S2-hFc on AHC sensor. Particulars: remark: other sources report otherwise. (In general: Biolayer interferometry detects binding as a change in optical thickness at a sensor tip.)
The target is the same in assay [2]. In words: Octet BLI; Fab as analyte over S2-hFc on AHC sensors; steady-state analysis. Particulars: remark: other sources report otherwise.

B1: 2-A6 Fab (Fab, V domains shown)
VH: QVTLRESGPALVKPTQTLTLTCTFSGFSLNTRGMSVSWIRQPPGKALEWLALIDWEDDKFYRTSLMTRLTISKDIFKNQVVLTMTNVDPVDTGTYYCARTYSVGVKYFGMDVWGQGTTVTVSS
VL: SSELTQDPAVSVALGQTVRITCQGDSLRNYYASWYRQEPGQAPILLIYGGNYRPSGIPDRFSGSSSGNTASLTITGAQAEDEADYYCNSRDSSGNHVVFGGGTKLTVL
Usually Kd stands for the constant that tells how readily two partners part at equilibrium. Read a high Kd as lower affinity. As for B1, the dissociation constant Kd in assay [1] was 900 nM; in assay [2] it was 913 nM.
